# Laboratory results taken from patent publication US20110135573A1, “METALLOPROTEINASE 9 AND METALLOPROTEINASE 2 BINDING PROTEINS” (DYAX CORP., priority 2009, published 2011).
# B1: M0237-D02: MMP-9/-2 dual reactive antibody inhibitor (parental); sFab and hIgG1 (antibody, V domains shown)
# VH: EVQLLESGGGLVQPGGSLRLSCAASGFTFSQYPMWWVRQAPGKGLEWVSYIVPSGGRTYYADSVKGRFTISRDNSKNTLYLQMNSLRAEDTAVYYCAKDRAYGDYVGWNGFDYWGQGTLVTVSS
# VL: DIQMTQSPATLSLSPGERATLSCRASQSISSFLAWYQQKPGQAPRLLIYDASYRATGIPARFSGSGSGTDFTLTISSLEPEDYAVYYCQQRGNWPITFGQGTRLEIK
# Target: h-MMP-9/h-TIMP-1 complex (Homo sapiens, UniProt P14780)
# Test: Biacore 3000 binding to antibody-coated CM5 chip
# Settings: 25° C.
# Protocol: The non competitive inhibition model implies that the ternary complex enzyme-substrate-inhibitor can form. It is however possible that this complex cannot form with bigger substrates, in which case the antibody would behave as a competitive inhibitor. In order to address this issue, the ability of M0237-D02 antibody to bind to the h-MMP-9 when the enzyme is complexed to its natural inhibitor h-TIMP-1 was determined. The reasoning is that if the antibody cannot bind to the h-MMP-9/h-TIMP-1 complex, it would probably behave as a competitive inhibitor of this enzyme in the presence of bigger substrates.
# Experiments were performed at 25° C. with the help of a Biacore 3000 instrument. The MMP-9 binding protein (M0166F10) and the M0237-D02 antibody were coated to a CM5 chip either via standard amine coupling or using an anti-Fc antibody surface. Then either the active, human MMP-9 catalytic domain (BIOMOL, SE-244), the human pro-MMP-9 (R&D, 911-MP), the human TIMP-1 (R&D, 970-TM) or a h-MMP-9/h-TIMP-1 complex were flowed over the antibody surfaces, and binding was recorded.
# h-MMP-9/h-TIMP-1 complex, sequence (P14780 107-444 limits assumed): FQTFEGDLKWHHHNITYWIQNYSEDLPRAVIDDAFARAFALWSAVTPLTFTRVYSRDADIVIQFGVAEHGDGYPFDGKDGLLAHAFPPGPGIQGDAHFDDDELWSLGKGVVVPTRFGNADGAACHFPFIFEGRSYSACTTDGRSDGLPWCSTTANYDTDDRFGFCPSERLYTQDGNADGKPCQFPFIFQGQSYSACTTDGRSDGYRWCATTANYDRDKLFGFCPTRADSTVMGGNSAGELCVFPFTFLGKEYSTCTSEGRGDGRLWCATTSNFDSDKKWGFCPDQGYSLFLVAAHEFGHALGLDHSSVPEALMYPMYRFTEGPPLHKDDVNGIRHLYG
# h-MMP-9/h-TIMP-1 complex, sequence (P01033 24-207 partner): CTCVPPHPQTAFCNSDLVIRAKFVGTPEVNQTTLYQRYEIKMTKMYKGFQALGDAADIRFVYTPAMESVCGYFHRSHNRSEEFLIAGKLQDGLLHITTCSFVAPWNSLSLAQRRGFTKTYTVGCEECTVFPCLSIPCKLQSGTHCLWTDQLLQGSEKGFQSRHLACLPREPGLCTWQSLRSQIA
molecule,measurement,setting,value
B1,binding of huTIMP-1/cat-huMMP-9,Direct capture,No
same,binding of huTIMP-1/cat-huMMP-9,Fc capture,no binding was observed
same,binding of huTIMP-1/cat-huMMP-9,"Fc capture, listed as 539A-M0237D02",No
